# According to publication doi:10.1101/784462, “Rv3722c governs aspartate-dependent nitrogen metabolism in Mycobacterium tuberculosis” (bioRxiv, 2019):
# B1: Rv3722c (aspartate aminotransferase of Mycobacterium tuberculosis) (enzyme)
# chain: SFDSLSPQELAALHARHQQDYAALQGMKLALDLTRGKPSAEQLDLSNQLLSLPGDDYRDPEGTDTRNYGGQHGLPGLRAIFAELLGIAVPNLIAGNNSSLELMHDIVAFSMLYGGVDSPRPWIQEQDGIKFLCPVPGYDRHFAITETMGIEMIPIPMLQDGPDVDLIEELVAVDPAIKGMWTVPVFGNPSGVTYSWETVRRLVQMRTAAPDFRLFWDNAYAVHTLTLDFPRQVDVLGLAAKAGNPNRPYVFASTSKITFAGGGVSFFGGSLGNIAWYLQYAGKKSIGPDKVNQLRHLRFFGDADGVRLHMLRHQQILAPKFALVAEVLDQRLSESKIASWTEPKGGYFISLDVLPGTARRTVALAKDVGIAVTEAGASFPYRKDPDDKNIRIAPSFPSVPDLRNAVDGLATCALLAATETLLNQGLASSAPNVR
# notes: also called AspAT; not shown: His6, C-terminal, cleaved
# Target: the molecule itself
# Experiment: crystal structure; Rv3722c (~40 mg/mL) co-crystallised with 5 mM L-glutamic acid (PDB 6U78) or 10 mM L-kynurenine (PDB 6U7A), sitting drop vapor diffusion at 17 °C
protein,measurement,value
B1,binding result,binds
